Data on three sequences can be found in the supplement of paper PMC5998384.

The test system of data set [1] is HeLa Kyoto. In words: solubility in G1/S (NP-40 vs SDS abundance) (log2 ratio); higher = more soluble. The settings on record: cell cycle stage: G1/S.
Data set [2] has as its system HeLa Kyoto. In words: melting temperature (median over replicates), in situ; higher = more thermally stable.
The test system of data set [3] is HeLa Kyoto. In words: solubility change mitosis vs G1/S (difference of NP-40 vs SDS log2 ratios) (log2 ratio difference); higher = more soluble in mitosis.
For data set [4], the system named is HeLa Kyoto. Kind of data set: thermal stability score vs G1/S (z-score of summed log2 fold changes over temperatures); higher = more thermally stable than in G1/S.
Where [5] appears, read: cell cycle stage: early G1 (4.5 h after nocodazole release).
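Wherever melting temperature (median over replicates), in situ is given: HeLa Kyoto cells synchronized by double thymidine or nocodazole block, proteins quantified by TMT10plex mass spectrometry, three independent biological replicates.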
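Wherever solubility change mitosis vs G1/S (difference of NP-40 vs SDS log2 ratios) is given: synchronized HeLa Kyoto cells (double thymidine block for G1/S, nocodazole release for mitosis), protein amounts in NP-40 versus SDS lysates quantified by mass spectrometry, three biological replicates.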
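Wherever solubility in G1/S (NP-40 vs SDS abundance) is given: HeLa Kyoto cells arrested at G1/S by double thymidine block, proteins quantified by TMT10plex mass spectrometry in mild NP-40 versus SDS extracts, three biological replicates.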
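Wherever thermal stability score vs G1/S (z-score of summed log2 fold changes over temperatures) is given: synchronized HeLa Kyoto cells, proteins quantified by TMT10plex mass spectrometry, three biological replicates, mitosis taken 0.5 h after nocodazole release, G1/S directly after double thymidine block.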

With “MGKEQELLEAARTGHLPAVEKLLSGKRLSSGFGGGGGGGSGGGGGGSGGGGGGLGSSSHPLSSLLSMWRGPNVNCVDSTGYTPLHHAALNGHKDVVEVLLRNDALTNVADSKGCYPLHLAAWKGDAQIVRLLIHQGPSHTRVNEQNNDNETALHCAAQYGHTEVVKVLLEELTDPTMRNNKFETPLDLAALYGRLEVVKMLLNAHPNLLSCNTKKHTPLHLAARNGHKAVVQVLLDAGMDSNYQTEMGSALHEAALFGKTDVVQILLAAGTDVNIKDNHGLTALDTVRELPSQKSQQIAALIEDHMTGKRSTKEVDKTPPPQPPLISSMDSISQKSQGDVEKAVTELIIDFDANAEEEGPYEALYNAISCHSLDSMASGRSSDQDSTNKEAEAAGVKPAGVRPRERPPPPAKPPPDEEEEDHIDKKYFPLTASEVLSMRPRIHGSAAREEDEHPYELLLTAETKKVVLVDGKTKDHRRSSSSRSQDSAEGQDGQVPEQFSGLLHGSSPVCEVGQDPFQLLCTAGQSHPDGSPQQGACHKASMQLEETGVHAPGASQPSALDQSKRVGYLTGLPTTNSRSHPETLTHTASPHPGGAEEGDRSGARSRAPPTSKPKAELKLSRSLSKSDSDLLTCSPTEDATMGSRSESLSNCSIGKKRLEKSPSFASEWDEIEKIMSSIGEGIDFSQERQKISGLRTLEQSVGEWLESIGLQQYESKLLLNGFDDVHFLGSNVMEEQDLRDIGISDPQHRRKLLQAARSLPKVKALGYDGNSPPSVPSWLDSLGLQDYVHSFLSSGYSSIDTVKNLWELELVNVLKVQLLGHRKRIIASLADRPYEEPPQKPPRFSQLRCQDLLSQTSSPLSQNDSCTGRSADLLLPPGDTGRRRHDSLHDPAAPSRAERFRIQEEHREAKLTLRPPSLAAPYAPVQSWQHQPEKLIFESCGYEANYLGSMLIKDLRGTESTQDACAKMRKSTEHMKKIPTIILSITYKGVKFIDASNKNVIAEHEIRNISCAAQDPEDLCTFAYITKDLQTSHHYCHVFSTVDVNLTYEIILTLGQAFEVAYQLALQAQKSRATGASAAEMIETKSSKPVPKPRVGVRKSALEPPDMDQDAQSHASVSWVVDPKPDSKRSLSTN [ANKS1A]”, the “solubility in G1/S (log2)” value in data set [1] was determined as 0.191. The melting temperature is 49.9 °C in data set [2] (cell cycle stage: G1/S) and 50.1 °C in data set [2] (cell cycle stage: mitosis). The “solubility change mitosis (log2)” value in data set [3] is -0.0097. The thermal stability score was 0.94 in data set [4] (setting [5]) and 1.51 in data set [4] (cell cycle stage: mitosis).
As to “MGKKGKKEKKGRGAEKTAAKMEKKVSKRSRKEEEDLEALIAHFQTLDAKRTQTVELPCPPPSPRLNASLSVHPEKDELILFGGEYFNGQKTFLYNELYVYNTRKDTWTKVDIPSPPPRRCAHQAVVVPQGGGQLWVFGGEFASPNGEQFYHYKDLWVLHLATKTWEQVKSTGGPSGRSGHRMVAWKRQLILFGGFHESTRDYIYYNDVYAFNLDTFTWSKLSPSGTGPTPRSGCQMSVTPQGGIVVYGGYSKQRVKKDVDKGTRHSDMFLLKPEDGREDKWVWTRMNPSGVKPTPRSGFSVAMAPNHQTLFFGGVCDEEEEESLSGEFFNDLYFYDATRNRWFEGQLKGPKSEKKKRRRGRKEEPEGGSRPACGGAGTQGPVQLVKEVVAEDGTVVTIKQVLTAPGSAGQPRSEDEDSLEEAGSPAPGPCPRSNAMLAVKHGVLYVYGGMFEAGDRQVTLSDLHCLDLHRMEAWKALVEMDPETQEWLEETDSEEDSEEVEGAEGGVDDEDSGEESGAED [KLHDC4]”, in data set [1], the “solubility in G1/S (log2)” value is -0.239. Further, the results for the melting temperature in data set [2] (cell cycle stage: G1/S) and in data set [2] (cell cycle stage: mitosis) were 49.7 °C and 48.9 °C, respectively. Besides, the “solubility change mitosis (log2)” value in data set [3] was -0.00461. Moreover, the thermal stability score in data set [4] (setting [5]) is -0.0688; in data set [4] (cell cycle stage: mitosis) it was -0.148.
Consider “MGKKYKNIVLLKGLEVINDYHFRMVKSLLSNDLKLNLKMREEYDKIQIADLMEEKFRGDAGLGKLIKIFEDIPTLEDLAETLKKEKLKVKGPALSRKRKKEVDATSPAPSTSSTVKTEGAEATPGAQKRKKSTKEKAGPKGSKVSEEQTQPPSPAGAGMSTAMGRSPSPKTSLSAPPNSSSTENPKTVAKCQVTPRRNVLQKRPVIVKVLSTTKPFEYETPEMEKKIMFHATVATQTQFFHVKVLNTSLKEKFNGKKIIIISDYLEYDSLLEVNEESTVSEAGPNQTFEVPNKIINRAKETLKIDILHKQASGNIVYGVFMLHKKTVNQKTTIYEIQDDRGKMDVVGTGQCHNIPCEEGDKLQLFCFRLRKKNQMSKLISEMHSFIQIKKKTNPRNNDPKSMKLPQEQRQLPYPSEASTTFPESHLRTPQMPPTTPSSSFFTKKSEDTISKMNDFMRMQILKEGSHFPGPFMTSIGPAESHPHTPQMPPSTPSSSFLTTKSEDTISKMNDFMRMQILKEGSHFPGPFMTSIGPAESHPHTPQMPPSTPSSSFLTTLKPRLKTEPEEVSIEDSAQSDLKEVMVLNATESFVYEPKEQKKMFHATVATENEVFRVKVFNIDLKEKFTPKKIIAIANYVCRNGFLEVYPFTLVADVNADRNMEIPKGLIRSASVTPKINQLCSQTKGSFVNGVFEVHKKNVRGEFTYYEIQDNTGKMEVVVHGRLTTINCEEGDKLKLTCFELAPKSGNTGELRSVIHSHIKVIKTRKNKKDILNPDSSMETSPDFFF [IFI16]”, for which the “solubility in G1/S (log2)” value in data set [1] was -0.293. The melting temperature was found to be 46.8 °C in data set [2] (cell cycle stage: G1/S) and 49.1 °C in data set [2] (cell cycle stage: mitosis). In data set [3], the “solubility change mitosis (log2)” value is 0.318. Also, the values for the thermal stability score in data set [4] (setting [5]) and in data set [4] (cell cycle stage: mitosis) were 3.09 and 5.43, respectively.
